Measured values as given in publication PMC11996679, “Molecular basis of human nuclear and mitochondrial tRNA 3′ processing” (Nature Structural & Molecular Biology, 2024).
Changes are numbered by the printed parent chain.

T1: Δ1–31 ELAC2-Asp550Asn (human, UniProt Q9BQ52 32-826, Asp550Asn)
T1 construct: Cloned in the 438-B vector (Addgene plasmid 55219) with an N-terminal 6xHis tag and a TEV site; the tag was removed with TEV protease; also called ELAC2^mut; ELAC2(D550N); source: Hi-Five insect cells (baculovirus), purified (HisTrap, TEV cleavage, heparin, Superdex 200); not shown: 6xHis, N-terminal, cleaved
T1 sequence (looked up): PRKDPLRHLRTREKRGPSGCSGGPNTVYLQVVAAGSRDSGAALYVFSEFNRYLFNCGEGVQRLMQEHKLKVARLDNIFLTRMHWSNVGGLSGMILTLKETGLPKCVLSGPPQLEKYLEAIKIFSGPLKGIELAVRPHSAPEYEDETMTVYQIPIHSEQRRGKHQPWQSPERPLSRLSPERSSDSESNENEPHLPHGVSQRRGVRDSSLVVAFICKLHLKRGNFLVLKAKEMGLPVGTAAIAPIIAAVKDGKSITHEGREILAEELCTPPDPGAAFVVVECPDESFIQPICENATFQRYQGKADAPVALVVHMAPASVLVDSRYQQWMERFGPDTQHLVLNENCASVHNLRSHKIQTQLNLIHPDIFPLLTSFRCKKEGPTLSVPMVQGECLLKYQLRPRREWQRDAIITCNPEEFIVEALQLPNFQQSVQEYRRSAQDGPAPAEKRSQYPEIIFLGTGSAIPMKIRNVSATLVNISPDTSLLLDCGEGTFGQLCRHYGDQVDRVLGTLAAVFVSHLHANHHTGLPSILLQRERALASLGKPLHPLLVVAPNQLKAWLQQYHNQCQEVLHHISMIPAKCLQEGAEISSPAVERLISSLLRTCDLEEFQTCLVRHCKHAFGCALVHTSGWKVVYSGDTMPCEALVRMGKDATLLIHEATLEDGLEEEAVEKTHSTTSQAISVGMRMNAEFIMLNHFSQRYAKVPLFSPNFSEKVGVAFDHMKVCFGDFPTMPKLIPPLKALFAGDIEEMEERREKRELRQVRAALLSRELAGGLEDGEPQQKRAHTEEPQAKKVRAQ

T2: ELAC2 (cryo-EM);TRMT10C;SDR5C1 (Homo sapiens;Homo sapiens;Homo sapiens, UniProt Q9BQ52;Q7L0Y3;Q99714 32-826;40-403;1-261, ||)
T2 sequence 1: T1 sequence (looked up) with N519D
T2 sequence 2: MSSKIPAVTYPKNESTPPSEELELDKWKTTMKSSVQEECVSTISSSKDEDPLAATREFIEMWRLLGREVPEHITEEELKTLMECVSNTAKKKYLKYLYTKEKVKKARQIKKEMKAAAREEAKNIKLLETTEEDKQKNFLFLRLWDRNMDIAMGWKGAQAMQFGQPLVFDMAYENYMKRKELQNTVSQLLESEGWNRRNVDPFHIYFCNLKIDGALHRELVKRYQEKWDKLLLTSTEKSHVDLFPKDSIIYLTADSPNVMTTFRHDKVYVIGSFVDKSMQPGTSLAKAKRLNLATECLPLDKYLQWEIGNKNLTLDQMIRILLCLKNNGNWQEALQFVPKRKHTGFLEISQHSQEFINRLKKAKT
T2 sequence 3: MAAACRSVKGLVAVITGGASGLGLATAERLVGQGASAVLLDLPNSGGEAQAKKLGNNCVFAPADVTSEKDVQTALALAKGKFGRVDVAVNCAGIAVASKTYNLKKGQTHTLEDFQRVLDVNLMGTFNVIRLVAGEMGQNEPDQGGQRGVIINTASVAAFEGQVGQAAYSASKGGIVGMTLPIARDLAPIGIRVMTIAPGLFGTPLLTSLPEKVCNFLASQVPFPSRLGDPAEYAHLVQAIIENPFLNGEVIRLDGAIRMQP

B1: Δ1–91 TRMT10C (enzyme, human, UniProt Q7L0Y3 92-403, looked up)
chain: AATREFIEMWRLLGREVPEHITEEELKTLMECVSNTAKKKYLKYLYTKEKVKKARQIKKEMKAAAREEAKNIKLLETTEEDKQKNFLFLRLWDRNMDIAMGWKGAQAMQFGQPLVFDMAYENYMKRKELQNTVSQLLESEGWNRRNVDPFHIYFCNLKIDGALHRELVKRYQEKWDKLLLTSTEKSHVDLFPKDSIIYLTADSPNVMTTFRHDKVYVIGSFVDKSMQPGTSLAKAKRLNLATECLPLDKYLQWEIGNKNLTLDQMIRILLCLKNNGNWQEALQFVPKRKHTGFLEISQHSQEFINRLKKAKT
notes: TRMT10C (MRPP1), human, Δ1–91, used for the structural studies; also called MRPP1
B2: 5-tRNAGln-24 Trailer(Tyr) (structured_RNA)
RNA: GGUGAUAGGAUGGGGUGUGAUAGGUGGCACGGAGAAUUUUGGAUUCUCAGGGAUGGGUUCGAUUCUCAUAGUCCUAGGCUCCGAGGUGAUUUUCAAGCUCG
B3: SDR5C1 (enzyme, human)
chain: T2 sequence 3
notes: also called MRPP2; HSD17B10

Key:
[1] = molecular target: T1, Δ1–31 ELAC2-Asp550Asn; assay: cryo-EM structure; mt-RNase Z^Gln: 5–tRNA^Gln–24 first 5′ processed with Δ1–91 TRMT10C–SDR5C1 and Δ1–45 PRORP, then Δ1–31 ELAC2-Asp550Asn added, on ice 60 min; GraFix 10–30% sucrose gradient with 0–0.015% glutaraldehyde, 25 mM Na–HEPES pH 7.5, 20 mM NaCl, 20 μM ZnCl2; pre-mt-tRNA^Gln is part of the complex; conditions: both partners purified
[2] = molecular target: T2, ELAC2 (cryo-EM);TRMT10C;SDR5C1; assay: cryo-EM structure; mt-RNase Z Gln complex (EMD-19455); FA: 20 mM Tris-HCl pH 8, 80 mM NaCl, 40 mM KCl, 3 mM MgCl2, 5% glycerol, 2 mM DTT; 20 nM RNA; 20 min at 20 C, read at room temperature; conditions: protein: recombinant;recombinant;recombinant; tags: N-terminal 6xHis-TEV (cleaved);;; copies: 1;1;4; tRNA cloverleaf with canonical elbow
[3] = molecular target: B1; assay: cryo-EM structure; mt-RNase Z^Gln: 5–tRNA^Gln–24 first 5′ processed with Δ1–91 TRMT10C–SDR5C1 and Δ1–45 PRORP, then Δ1–31 ELAC2-Asp550Asn added, on ice 60 min; GraFix 10–30% sucrose gradient with 0–0.015% glutaraldehyde, 25 mM Na–HEPES pH 7.5, 20 mM NaCl, 20 μM ZnCl2; pre-mt-tRNA^Gln is part of the complex; conditions: both partners purified

Binder: B1
binding result [1]: binds

Binder: B2
binding result [2]: binds

Binder: B3
binding result [3]: binds
